# Biological target: T1, human PD-L1 protein (ELISA antigen) (human, UniProt Q9NZQ7 19-238, limits assumed)
# T1 construct: One molecule is used for both ELISAs; also called PD-L1-biotin protein
# Assay: relative to original antibody h_Nb1 (SEQ ID NO. 1); ELISA comparison per Example 10
# T1 sequence (Q9NZQ7 19-238 limits assumed): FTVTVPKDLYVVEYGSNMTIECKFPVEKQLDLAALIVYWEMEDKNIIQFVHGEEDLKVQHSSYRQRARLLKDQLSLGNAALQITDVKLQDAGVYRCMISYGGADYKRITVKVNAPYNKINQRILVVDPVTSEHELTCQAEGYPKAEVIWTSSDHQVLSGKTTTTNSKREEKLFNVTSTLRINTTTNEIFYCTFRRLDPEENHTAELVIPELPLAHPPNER
row,Improved value of relative affinity,Binder
1,3.31,"h_Nb1_C103K (VHH, also called 80) VHH: DVQLQESGGGLVQPGGSLRLSCAASGFTFSSYAMSWVRQAPGKGLEWVSDINSGGDNTDYADSVKGRFTISRDNAKNTLYLQMNSLKPEDTAVYYCARGPKLKFSSWGQGTQVTVSS"
2,5.13,"h_Nb1_A61N (VHH, also called 72) VHH: DVQLQESGGGLVQPGGSLRLSCAASGFTFSSYAMSWVRQAPGKGLEWVSDINSGGDNTDYNDSVKGRFTISRDNAKNTLYLQMNSLKPEDTAVYYCARGPKLCFSSWGQGTQVTVSS"
3,4.9,"h_Nb1_D59M (VHH, also called 76) VHH: DVQLQESGGGLVQPGGSLRLSCAASGFTFSSYAMSWVRQAPGKGLEWVSDINSGGDNTMYADSVKGRFTISRDNAKNTLYLQMNSLKPEDTAVYYCARGPKLCFSSWGQGTQVTVSS"
4,5.12,"h_Nb1_D59F (VHH, also called 77) VHH: DVQLQESGGGLVQPGGSLRLSCAASGFTFSSYAMSWVRQAPGKGLEWVSDINSGGDNTFYADSVKGRFTISRDNAKNTLYLQMNSLKPEDTAVYYCARGPKLCFSSWGQGTQVTVSS"
5,7.02,"h_Nb1_G99Y (VHH, also called 86) VHH: DVQLQESGGGLVQPGGSLRLSCAASGFTFSSYAMSWVRQAPGKGLEWVSDINSGGDNTDYADSVKGRFTISRDNAKNTLYLQMNSLKPEDTAVYYCARYPKLCFSSWGQGTQVTVSS"
6,3.83,"h_Nb1_C103W (VHH, also called 82) VHH: DVQLQESGGGLVQPGGSLRLSCAASGFTFSSYAMSWVRQAPGKGLEWVSDINSGGDNTDYADSVKGRFTISRDNAKNTLYLQMNSLKPEDTAVYYCARGPKLWFSSWGQGTQVTVSS"
7,11.7,"h_Nb1_D62W (VHH, also called 78) VHH: DVQLQESGGGLVQPGGSLRLSCAASGFTFSSYAMSWVRQAPGKGLEWVSDINSGGDNTDYAWSVKGRFTISRDNAKNTLYLQMNSLKPEDTAVYYCARGPKLCFSSWGQGTQVTVSS"
8,12.1,"h_Nb1_G99R (VHH, also called 83) VHH: DVQLQESGGGLVQPGGSLRLSCAASGFTFSSYAMSWVRQAPGKGLEWVSDINSGGDNTDYADSVKGRFTISRDNAKNTLYLQMNSLKPEDTAVYYCARRPKLCFSSWGQGTQVTVSS"
9,4.66,"h_Nb1_A61Q (VHH, also called 73) VHH: DVQLQESGGGLVQPGGSLRLSCAASGFTFSSYAMSWVRQAPGKGLEWVSDINSGGDNTDYQDSVKGRFTISRDNAKNTLYLQMNSLKPEDTAVYYCARGPKLCFSSWGQGTQVTVSS"
10,4.12,"h_Nb1_A61K (VHH, also called 74) VHH: DVQLQESGGGLVQPGGSLRLSCAASGFTFSSYAMSWVRQAPGKGLEWVSDINSGGDNTDYKDSVKGRFTISRDNAKNTLYLQMNSLKPEDTAVYYCARGPKLCFSSWGQGTQVTVSS"
11,3.38,"h_Nb1_C103M (VHH, also called 81) VHH: DVQLQESGGGLVQPGGSLRLSCAASGFTFSSYAMSWVRQAPGKGLEWVSDINSGGDNTDYADSVKGRFTISRDNAKNTLYLQMNSLKPEDTAVYYCARGPKLMFSSWGQGTQVTVSS"
12,4.28,"h_Nb1_D59R (VHH, also called 75) VHH: DVQLQESGGGLVQPGGSLRLSCAASGFTFSSYAMSWVRQAPGKGLEWVSDINSGGDNTRYADSVKGRFTISRDNAKNTLYLQMNSLKPEDTAVYYCARGPKLCFSSWGQGTQVTVSS"
13,6.16,"h_Nb1_G99Q (VHH, also called 84) VHH: DVQLQESGGGLVQPGGSLRLSCAASGFTFSSYAMSWVRQAPGKGLEWVSDINSGGDNTDYADSVKGRFTISRDNAKNTLYLQMNSLKPEDTAVYYCARQPKLCFSSWGQGTQVTVSS"
14,6.16,"h_Nb1_G99W (VHH, also called 85) VHH: DVQLQESGGGLVQPGGSLRLSCAASGFTFSSYAMSWVRQAPGKGLEWVSDINSGGDNTDYADSVKGRFTISRDNAKNTLYLQMNSLKPEDTAVYYCARWPKLCFSSWGQGTQVTVSS"
15,5.8,"h_Nb1_D62Y (VHH, also called 79) VHH: DVQLQESGGGLVQPGGSLRLSCAASGFTFSSYAMSWVRQAPGKGLEWVSDINSGGDNTDYAYSVKGRFTISRDNAKNTLYLQMNSLKPEDTAVYYCARGPKLCFSSWGQGTQVTVSS"

# Biological target: T1, human PD-L1 protein (ELISA antigen)
# Assay: relative to original antibody h_Nb2 (SEQ ID NO. 5); ELISA comparison per Example 10
row,Improved value of relative affinity,Binder
1,1.46,"h_Nb2_F29R (VHH, also called 93) VHH: DVQLQESGGGLVQPGGSLRLSCAASGFTRGDRWMYWLRQAPGKGLEWVSSINPAGRSTYYADSVKGRFTISRDNAKNTLYLQMNSLKSEDTAVYYCTKDPGGYQKGQGTQVTVSS"
2,5.92,"h_Nb2_G101W (VHH, also called 91) VHH: DVQLQESGGGLVQPGGSLRLSCAASGFTFGDRWMYWLRQAPGKGLEWVSSINPAGRSTYYADSVKGRFTISRDNAKNTLYLQMNSLKSEDTAVYYCTKDPWGYQKGQGTQVTVSS"
3,3.98,"h_Nb2_P100E (VHH, also called 97) VHH: DVQLQESGGGLVQPGGSLRLSCAASGFTFGDRWMYWLRQAPGKGLEWVSSINPAGRSTYYADSVKGRFTISRDNAKNTLYLQMNSLKSEDTAVYYCTKDEGGYQKGQGTQVTVSS"
4,1.44,"h_Nb2_F29W (VHH, also called 94) VHH: DVQLQESGGGLVQPGGSLRLSCAASGFTWGDRWMYWLRQAPGKGLEWVSSINPAGRSTYYADSVKGRFTISRDNAKNTLYLQMNSLKSEDTAVYYCTKDPGGYQKGQGTQVTVSS"
5,6.5,"h_Nb2_G101R (VHH, also called 90) VHH: DVQLQESGGGLVQPGGSLRLSCAASGFTFGDRWMYWLRQAPGKGLEWVSSINPAGRSTYYADSVKGRFTISRDNAKNTLYLQMNSLKSEDTAVYYCTKDPRGYQKGQGTQVTVSS"
6,8.48,"h_Nb2_G101Y (VHH, also called 92) VHH: DVQLQESGGGLVQPGGSLRLSCAASGFTFGDRWMYWLRQAPGKGLEWVSSINPAGRSTYYADSVKGRFTISRDNAKNTLYLQMNSLKSEDTAVYYCTKDPYGYQKGQGTQVTVSS"
7,10,"h_Nb2_G30W (VHH, also called 89) VHH: DVQLQESGGGLVQPGGSLRLSCAASGFTFWDRWMYWLRQAPGKGLEWVSSINPAGRSTYYADSVKGRFTISRDNAKNTLYLQMNSLKSEDTAVYYCTKDPGGYQKGQGTQVTVSS"
8,5.11,"h_Nb2_G30F (VHH, also called 88) VHH: DVQLQESGGGLVQPGGSLRLSCAASGFTFFDRWMYWLRQAPGKGLEWVSSINPAGRSTYYADSVKGRFTISRDNAKNTLYLQMNSLKSEDTAVYYCTKDPGGYQKGQGTQVTVSS"
9,3.41,"h_Nb2_P100Q (VHH, also called 96) VHH: DVQLQESGGGLVQPGGSLRLSCAASGFTFGDRWMYWLRQAPGKGLEWVSSINPAGRSTYYADSVKGRFTISRDNAKNTLYLQMNSLKSEDTAVYYCTKDQGGYQKGQGTQVTVSS"
10,6.23,"h_Nb2_G30R (VHH, also called 87) VHH: DVQLQESGGGLVQPGGSLRLSCAASGFTFRDRWMYWLRQAPGKGLEWVSSINPAGRSTYYADSVKGRFTISRDNAKNTLYLQMNSLKSEDTAVYYCTKDPGGYQKGQGTQVTVSS"
11,7.21,"h_Nb2_P100R (VHH, also called 95) VHH: DVQLQESGGGLVQPGGSLRLSCAASGFTFGDRWMYWLRQAPGKGLEWVSSINPAGRSTYYADSVKGRFTISRDNAKNTLYLQMNSLKSEDTAVYYCTKDRGGYQKGQGTQVTVSS"

# Biological target: T1, human PD-L1 protein (ELISA antigen)
# Assay: ELISA; PD-L1 protein on NeutrAvidin plate, crude nanobody, anti-HA detection; positive = absorbance more than three times control
# Procedure: After several rounds of panning, TG1 competent cells in the logarithmic phase of growth were infected with the eluted phages, gradiently diluted and spread on the plate for overnight culture. 96 clones were picked and inoculated into a 96-well round-bottom plate with 100 μL of culture medium per well and left to be incubated overnight as the master plate. Then 10 μL of overnight cultured bacterial solution was pipetted into a 96-well deep-bottom plate with 1 mL of culture medium per well to induce nanobody expression which was then subjected to crude purification. The 96-well ELISA plate was coated with 5 μg/mL NeutrAvidin solution at 4° C., 700 rpm, overnight. The next day, 2% skim milk powder was added to block the plate at room temperature and washed 3 times with a solution containing bovine serum albumin BSA. 100 μL 3 μg/mL PD-L1 protein was added and incubated at room temperature for 30 minutes, then washed. The crudely extracted nanobody was added and incubated at room temperature for 1 h followed by washing. Mouse anti-HA primary antibody was added and the mixture was incubated at room temperature for 1 hour followed by washing. Goat anti-mouse alkaline phosphatase-labeled secondary antibody was added and the mixture was incubated at room temperature for 1 hour followed by washing. Alkaline phosphatase colorimetric solution was added for 10 minutes, and the absorption value was detected at 405 nm on a microplate reader. A well with an absorption value that is more than three times the absorption value of the control group is preliminarily determined as a positive well. The positive clones were transferred to a shaking tube for culture in order to extract the plasmid and then subjected to sequencing. Finally, 11 candidate positive clones were obtained.
row,binding result,Binder
1,binds,h_Nb1 VHH (VHH) VHH: DVQLQESGGGLVQPGGSLRLSCAASGFTFSSYAMSWVRQAPGKGLEWVSDINSGGDNTDYADSVKGRFTISRDNAKNTLYLQMNSLKPEDTAVYYCARGPKLCFSSWGQGTQVTVSS
2,binds,h_Nb13 VHH (VHH) VHH: DVQLQESGGGLVQPGGSLRLSCAASGSIFSINAMGWYRQAPGKSRELVAAITSGGSTNYADSVKGRFTISRDTAKNTVYLLMNSLEPEDTAVYYCNVERRRPPHYLSEYDFDWGQGTQVTVSS
3,binds,h_Nb26 VHH (VHH) VHH: DVQLQESGGGLVQPGGSLRLSCAAPGSIFRINAMGWYRQAPGKQRELVAAITSGGSTNYADSVQGRFTISRDNAKNTVYLQMNSLKPEDTAVYYCNVERRRPPHYYSDYDFDWGQGTQVTVSS
